Measured values published in PMC10426277.

Molecular target: Peroxiredoxin 4 wildtype, recombinant full-length (human) (UniProt Q13162)
Assay: SPR

Sequence of Sulfiredoxin (Srx), recombinant full-length (Q9BYN0 whole entry): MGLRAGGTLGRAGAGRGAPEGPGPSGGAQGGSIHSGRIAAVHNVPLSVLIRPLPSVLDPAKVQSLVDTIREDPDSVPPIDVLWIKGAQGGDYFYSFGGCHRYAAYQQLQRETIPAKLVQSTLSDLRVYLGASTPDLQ

Kd: 3.26 mM
koff: 0.00166 s⁻¹
kon: 0.509 M⁻¹ s⁻¹
Substance: Sulfiredoxin (Srx), recombinant full-length (from UniProt Q9BYN0 1-137) (enzyme)
